Our source for the binding result and EC50 values is US20190233519A1 (NANJING LEGEND BIOTECH, published 2019).

The term EC50 denotes the concentration that produces a half-maximal response. Low readings indicate higher potency in that assay, high ones lower potency in that assay.

Assay [1] deals with T1, CTLA-4-His protein (Homo sapiens (Human), UniProt P16410 37-161).
T1 construct: also called CTLA-4-His fusion protein; not shown: His tag
Description: SPR, antibody immobilised on CM5, CTLA-4-His as analyte.

Assay [2] addresses T2, biotin-labeled hCTLA-4/Fc protein (human, UniProt P16410 37-161, biotin label in the FACS competition assays (sites not given)).
T2 construct: also called CTLA-4 ECD (CTLA-4-Fc); CTLA-4-Fc (GenScript, Z03373-50)
Description: FACS competition, biotin hCTLA-4/Fc on CHO cells expressing human B7-1.

T1 sequence (P16410 37-161 limits assumed): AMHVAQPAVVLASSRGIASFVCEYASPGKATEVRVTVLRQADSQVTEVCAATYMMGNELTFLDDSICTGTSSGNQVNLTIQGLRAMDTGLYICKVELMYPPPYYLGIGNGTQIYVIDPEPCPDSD
T2 sequence (P16410 37-161): as the sequence (P16410 37-161 limits assumed) above

B1: BCP-311K (A34311-9GS-Keytruda) (bispecific antibody, human IgG4 S228P, kappa)
heavy: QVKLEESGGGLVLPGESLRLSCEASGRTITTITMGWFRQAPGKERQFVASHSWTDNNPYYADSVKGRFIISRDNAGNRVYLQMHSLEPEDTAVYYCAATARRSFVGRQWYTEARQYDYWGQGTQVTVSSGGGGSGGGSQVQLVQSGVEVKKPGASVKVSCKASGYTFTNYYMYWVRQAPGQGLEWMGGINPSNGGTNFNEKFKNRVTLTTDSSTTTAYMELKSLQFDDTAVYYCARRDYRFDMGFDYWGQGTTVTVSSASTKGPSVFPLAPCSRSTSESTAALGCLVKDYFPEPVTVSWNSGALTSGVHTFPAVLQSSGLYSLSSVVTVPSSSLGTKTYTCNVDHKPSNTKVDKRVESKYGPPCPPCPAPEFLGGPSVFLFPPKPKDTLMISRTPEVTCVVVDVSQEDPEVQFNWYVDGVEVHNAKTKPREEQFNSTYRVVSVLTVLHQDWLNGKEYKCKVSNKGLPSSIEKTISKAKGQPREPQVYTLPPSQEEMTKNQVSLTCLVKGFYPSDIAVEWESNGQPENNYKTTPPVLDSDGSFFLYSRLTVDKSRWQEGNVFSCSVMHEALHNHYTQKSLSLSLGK
light: EIVLTQSPATLSLSPGERATLSCRASKGVSTSGYSYLHWYQQKPGQAPRLLIYLASYLESGVPARFSGSGSGTDFTLTISSLEPEDFAVYYCQHSRDLPLTFGGGTKVEIKRTVAAPSVFIFPPSDEQLKSGTASVVCLLNNFYPREAKVQWKVDNALQSGNSQESVTEQDSKDSTYSLSSTLTLSKADYEKHKVYACEVTHQGLSSPVTKSFNRGEC
With B1, the binding result in assay [1] was “binds”.

B2: A34311 sdAb (VHH)
VHH: QVKLEESGGGLVLPGESLRLSCEASGRTITTITMGWFRQAPGKERQFVASHSWTDNNPYYADSVKGRFIISRDNAGNRVYLQMHSLEPEDTAVYYCAATARRSFVGRQWYTEARQYDYWGQGTQVTVSS
notes: also called A34311 (WT)
For B2, the EC50 in assay [2] is around 14.5 nM.
